The target of assay [1] is T1, RANK-Fc carrier-free (R&D Systems) (human, UniProt Q9Y6Q6 30-212).
T1 construct: Bought from R&D Systems; Immobilized on the sensor chip for SPR and used in solution for NMR; also called hRANK; RANK-Fc CF; not shown: Fc part of the bought fusion protein
T1 sequence (looked up): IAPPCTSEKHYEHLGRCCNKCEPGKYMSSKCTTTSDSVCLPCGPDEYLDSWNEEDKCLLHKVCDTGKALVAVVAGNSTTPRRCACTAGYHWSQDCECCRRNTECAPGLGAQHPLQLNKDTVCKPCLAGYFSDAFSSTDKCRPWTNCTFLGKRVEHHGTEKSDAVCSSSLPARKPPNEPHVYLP
The assay is described as follows: SPR (BIAcore 3000), RANK-Fc immobilized, single cycle kinetics, 1:1 Langmuir model. The method, then: Biosensor experiments were carried out on a BIAcore 3000 instrument (BIAcore) as published previously (Baud'Huin et al. 2009). Recombinant purified RANKL (2 μg/mL in 5 mM maleate, pH 5.75) or RANK-Fc carrier-free (5 μg/mL in sodium acetate buffer, pH 5.0) were covalently immobilized to the dextran matrix of a CMS sensor chip (BIAcore) at a flow rate of 5 μL/min. Immobilization levels ranging from 400 to 3000 Response Units (RU) for RANKL or 5000 RU for RANK were obtained. Binding assays were performed at 25° C. in 10 mM Hepes buffer, pH 7.4. The association phase was 180 seconds followed by a dissociation phase in the same buffer. Polypeptides binding studies to RANK or RANKL were determined using single cycle kinetics, starting with 100 μM of the polypeptide of interest followed by 2-fold serial dilutions (ranging from 100 to 0.78 μM). The sensorgrams were fitted to calculate the equilibrium-dissociation constants using the Langmuir 1:1 model with BiaEval 4.1 software (BIAcore). RANK-Fc CF, RANKL and OPG carrier-free were obtained from R&D Systems (Minneapolis, Minn., USA).
Binding of the polypeptides to RANK was studied using surface plasmon resonance (FIG. 1C). Several polypeptides bound to immobilized RANK in a dose-dependent manner, presented here is Pep1 (SEQ ID NO: 33).
On the technique in general: Surface plasmon resonance follows binding to a sensor surface in real time, without labels.

Assay [2] concerns the target T2, human RANK on cells (human CD14+ monocytes; HEK-RANK cells) (human, UniProt Q9Y6Q6 30-616).
T2 sequence (looked up): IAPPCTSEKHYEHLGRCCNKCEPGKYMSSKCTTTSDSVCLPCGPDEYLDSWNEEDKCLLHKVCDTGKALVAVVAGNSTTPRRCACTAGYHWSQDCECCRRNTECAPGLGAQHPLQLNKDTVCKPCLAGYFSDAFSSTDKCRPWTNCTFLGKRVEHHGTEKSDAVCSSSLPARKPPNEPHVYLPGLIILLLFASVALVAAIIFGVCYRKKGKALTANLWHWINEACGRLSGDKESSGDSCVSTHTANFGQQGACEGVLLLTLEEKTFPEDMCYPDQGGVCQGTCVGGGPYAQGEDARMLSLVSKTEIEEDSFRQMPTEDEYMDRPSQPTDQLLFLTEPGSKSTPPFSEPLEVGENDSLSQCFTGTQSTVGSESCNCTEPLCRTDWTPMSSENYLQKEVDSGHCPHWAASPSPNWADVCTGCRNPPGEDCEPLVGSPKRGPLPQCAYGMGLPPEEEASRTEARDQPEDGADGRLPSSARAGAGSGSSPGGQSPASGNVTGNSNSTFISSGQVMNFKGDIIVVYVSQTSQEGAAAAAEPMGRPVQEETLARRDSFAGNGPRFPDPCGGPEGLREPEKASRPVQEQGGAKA
The assay can be described thus: cell-based or functional assay.

Assay [3] concerns the target T3, mouse RANK on cells (murine CD11b+ monocytes; RAW264.7 cells) (mouse, UniProt O35305 31-625).
T3 sequence (looked up): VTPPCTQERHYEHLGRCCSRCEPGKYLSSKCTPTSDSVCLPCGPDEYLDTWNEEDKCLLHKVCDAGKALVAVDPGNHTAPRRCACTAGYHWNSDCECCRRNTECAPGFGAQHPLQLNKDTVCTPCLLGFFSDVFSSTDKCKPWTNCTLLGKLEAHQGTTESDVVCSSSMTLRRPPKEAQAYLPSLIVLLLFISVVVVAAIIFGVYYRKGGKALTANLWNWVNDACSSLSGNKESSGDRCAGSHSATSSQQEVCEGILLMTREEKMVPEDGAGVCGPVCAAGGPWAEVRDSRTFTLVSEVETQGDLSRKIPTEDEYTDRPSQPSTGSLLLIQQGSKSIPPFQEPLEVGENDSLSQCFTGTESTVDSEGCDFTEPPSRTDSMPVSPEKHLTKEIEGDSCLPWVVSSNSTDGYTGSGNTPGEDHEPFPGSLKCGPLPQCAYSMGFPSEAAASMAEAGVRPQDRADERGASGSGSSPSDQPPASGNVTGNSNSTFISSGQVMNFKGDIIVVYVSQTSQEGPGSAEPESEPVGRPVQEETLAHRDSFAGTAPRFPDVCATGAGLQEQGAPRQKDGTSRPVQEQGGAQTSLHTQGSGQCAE
The assay is described as follows: cell-based or functional assay.

B1: Pep1 (peptide)
peptide: ELASYIIITQLG
notes: Synthetic designed peptide; the SPR text mentions no pegylation; also called polypeptide Pep1
In the case of B1, in assay [1], the Kd (as a rule, the free concentration of one partner at which half of the binding sites on the other are occupied at equilibrium, for simple one-to-one binding) turned out to be 20.6 µM and the koff (usually the rate constant with which the complex falls apart) amounted to 0.000278 s⁻¹.

B2: Pep8 (peptide)
peptide: NVLKLCSGE
notes: Pegylated forms (N-(PEG)5, N-(PEG)8) were tested only in gene expression assays and in vivo; also called polypeptide Pep8
In the case of B2, in assay [1], the Kd worked out at 10.5 µM, the koff worked out at 0.0052 s⁻¹ and the kon (usually a measure of how fast the partners come together) was found to be 495 M⁻¹ s⁻¹. The “IC50 of RANKL-induced osteoclast formation (TRAP-positive multinucleated cells), human CD14+ cells” value in assay [2] was determined as 40 µM. The “IC50 of RANKL-induced osteoclast formation (TRAP-positive multinucleated cells), murine CD11b+ cells” value in assay [3] was 30 µM.

Source of the values: patent US20140371150A1 (UNIVERSITE DE NANTES, published 2014).
